The text below walks through data of the nanobody polyreactivity screen of Harvey et al. (2022).

This data set in a line: yeast display, Sf9 membrane polyspecificity reagent, FACS + sequencing; frameworks hold sequencing errors. The gist of the method: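 After 36–48 hours of galactose induction, yeast (Saccharomyces cerevisiae BJ5465) displaying a synthetic nanobody library were stained at 4 °C for 1 hour with 10% biotinylated, detergent-solubilized Sf9 membrane reagent. Streptavidin microbeads enriched the stained cells before FACS sorting into low and high (top ~1%) gates on anti-HA and streptavidin fluorescence. Each clone's polyreactivity label reflects its gate of origin.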
With “QVQLVESGGGLVQAGGSLRLSCAASGSIFYGYAMGWYRQAPGKERELVAAITGGGSTNYADSVKGRFTISRDNAKNTVYLQMNSLKPEDTAVYYCAAAPVSLPDYGYWGQGTQVTVSS”, the “polyreactivity (PSR sort gate)” value is on record as “low polyreactivity”. For “QVQLVESGGGLVQAGGSLRLSCAASGSIFYGYAMGWYRQAPGKERELVAAITWSGGSTYYADSVKGRFTISRDNAKNTVYLQINSLKPEDTAVYYCNAVSTRFRVRTSDYWGQGTQVTVSS” the value was “high polyreactivity”. Consider “QVQLVESGGGLVQAGGSLRLSCAASGSIFYGYAMGWYRQAPGKERELVATITSGDSTNYADSVKGRFTISRDNAKNTVYLQMNSLKPEDTAVYYCAADPAHYVFWYGRYGYDYWGQGTQVTVSS”, for which the “polyreactivity (PSR sort gate)” value is reported as “low polyreactivity”. Consider “QVQLVESGGGLVQAGGSLRLSCAASGSIFYHNAMGWYRQAPGKERELVAAITSGGSTHYADSVKGRFTISRDNAKNTVYLQMNSLKPEDTAVYYCNARDRRRTNLLDYWGQGTQVTVSS”, for which the “polyreactivity (PSR sort gate)” value is “low polyreactivity”. With “QVQLVESGGGLVQAGGSLRLSCAASGSIFYHNAMGWYRQAPGKERELVATISWRSASTYYADSVKGRFRISRDNAKNTVYLQMNSLKPEDTAVYYCAAKLQYRQYYYRYGYDYWGQGTQVTVSS”, the “polyreactivity (PSR sort gate)” value is “high polyreactivity”. For “QVQLVESGGGLVQAGGSLRLSCAASGSIFYHYAMGWYRQAPGKEREFVAAITRRGTSTYYADSVKGRFTISRDNAKNTVYLQMNSLKPEDTAVYYCAARYGPNMDYCGQGTQVTVSS” the value was “high polyreactivity”; for “QVQLVESGGGLVQAGGSLRLSCAASGSIFYHYAMGWYRQAPGKEWELVAAITITGGSTYYADSVKGRFTISRDNAKNTVYLQMNSLKPEDTAVYYCAAEGWYGYQWFDYWGQGTQVTVSS”, “high polyreactivity”. On to “QVQLVESGGGLVQAGGSLRLSCAASGSIFYINAMGWYRQAPGKERELVASISGGGGSTYYADSVKGRFTISRDNAKNTVYLQMNSLKPEDTAVYYCAARYRVYYLAGYEYWGQGTQVTVSS”, for which the “polyreactivity (PSR sort gate)” value is listed as “high polyreactivity”. The result for “QVQLVESGGGLVQAGGSLRLSCAASGSIFYISAMGWYRQAPGKERELVAAISWIDDTTYYADSVKGRFTISRDNAKNTVYLQMNSLKPEDTAVYYCAAELENVYAGGQMDYWGQGTQVTVSS” reads “high polyreactivity”; that for “QVQLVESGGGLVQAGGSLRLSCAASGSIFYIYAMGWYRQAPGKERELVASITFSGDITYYADSVKGRFTISRDNAKNTVYLQMNSLKPEDTAVYYCAADYHEQSYAVTYDYWGQGTQVTVSS”, “low polyreactivity”.

For “QVQLVESGGGLVQAGGSLRLSCAASGSIFYLNAMGWYRQAPGKERELVAAISKRGSRTYYADSVKGRFTISRDNAKNTVYLQMNSLKPEDTAVYYCNALDTPGYNTEPARQYDHWGQGTQVTVSS”, the “polyreactivity (PSR sort gate)” value is on record as “high polyreactivity”. The result for “QVQLVESGGGLVQAGGSLRLSCAASGSIFYLYAMGWYRQAPGKERELVADINWNGGTYYADSVKGRFTISRDNAKNTVYLQMNSLKPEDTAVYYCAAYYYPYEYDYWGQGTQVTVSS” reads “high polyreactivity”. For “QVQLVESGGGLVQAGGSLRLSCAASGSIFYLYAMGWYRQAPGKERELVAGITTSGGTTYYADSVKGRFTISRDNAKNTVYLQMNSLKPEDTAVYYCNAAVGYYSLPYDYWGQGTQVTVSS”, the “polyreactivity (PSR sort gate)” value is on record as “low polyreactivity”. As to “QVQLVESGGGLVQAGGSLRLSCAASGSIFYLYAMGWYRQAPGKERELVATITASGGSTNYADSVKGRFTISRDNAKNTVYLQMNSLKPEDTAVYYCAAEYYYLVYEYDYWGQGTQVTVSS”, the “polyreactivity (PSR sort gate)” value is reported as “high polyreactivity”.

As for “QVQLVESGGGLVQAGGSLRLSCAASGSIFYNALGWYRQAPGKERELVASISWSGGTSTYYADSVKGLFTISRDNAKNTVYLQMNSMKPEDTAVYYCAKASRYSSYWMYYWGQGTQVTVSS”, the “polyreactivity (PSR sort gate)” value was “high polyreactivity”. For “QVQLVESGGGLVQAGGSLRLSCAASGSIFYNAMGGYRQAPGKERELVAGISSGTSTYYADSVKGRFTISRDNAKNTVYLLMNSLKPEDTEVYYCATRWSYRYGYWGQGTQVTVSS”, the “polyreactivity (PSR sort gate)” value is listed as “high polyreactivity”. For the sequence “QVQLVESGGGLVQAGGSLRLSCAASGSIFYNYGMGWYRQAAGKEGELVAAIRASGDSTYYADSVKGRFTISRDNAKNTLYLQINSQKPEDTAVYYCAARPNQSYNGLYYYWGQGTQVTVSS”, the “polyreactivity (PSR sort gate)” value is recorded as “low polyreactivity”.

Take “QVQLVESGGGLVQAGGSLRLSCAASGSIFYNYTMGWSRQAPGKERELVAAISSSGGSTYYADSVKGRFSISRDNAKITVYLQMNSLTPEDTAVYFCAARSPGYYRIVWYDYWGLGTQVTVSS”: the “polyreactivity (PSR sort gate)” value is “high polyreactivity”. The result for “QVQLVESGGGLVQAGGSLRLSCAASGSIFYPYAMGWYRKAPGKERELVAAIRRSGVDTYYADSVKGRFTISRDYAKNTYNLQMISLKPEDTAVYYCAADPYWFFAHYDSWGQGTQVTVSS” reads “low polyreactivity”; that for “QVQLVESGGGLVQAGGSLRLSCAASGSIFYPYAMGWYRPAPGTERELVASISWSGGSTRYADSVKGRFTISRDNAKNSVYLQMNSLKPEDTAVYYCNAGYRTRHISLYDYWGQGTQVTVSS”, “high polyreactivity”.

Take “QVQLVESGGGLVQAGGSLRLSCAASGSIFYPYAMGWYRQAPGKERELVAAISSGGRTYYADSVKGRFTISRDNAKNTVYLQMNSLKPEDTAVFYCAARPKAYGRPPGYYWGQGTQVTVSS”: the “polyreactivity (PSR sort gate)” value is given as “high polyreactivity”.

On to “QVQLVESGGGLVQAGGSLRLSCAASGSIFYPYAMGWYRQAPGKERELVAAISSSGGSTYYADSVKGRFTISRDNAKNTVYLQMNSLKPEDTAVYYCAADAATGIFDRLNYWGQGTQVTVSS”, for which the “polyreactivity (PSR sort gate)” value is given as “high polyreactivity”. The result for “QVQLVESGGGLVQAGGSLRLSCAASGSIFYPYAMGWYRQAPGKERELVAAITWSGGETYYADSVKGRFTISRDNAKNTVYLQMNSLKPEDTAVYYCAAEWNVSPYDYWGQGTQVTVSS” reads “low polyreactivity”; that for “QVQLVESGGGLVQAGGSLRLSCAASGSIFYPYAMGWYRQAPGKERELVASITINDGSTYYADSVKGRFTISRDNAKNTVYLQMNSLKTEDTSVYYCNVEPVPGFGSEYEYWGQGTQVTVSS”, “low polyreactivity”; that for “QVQLVESGGGLVQAGGSLRLSCAASGSIFYPYTMGWYRQAPGKERELVAAISGGCRTYYADSVKGRFTISRDNAKNTVYLQMNSLKPEDTAVYYCAARYGYRWLVGKYEYWGQGTQVTVSS”, “high polyreactivity”. For “QVQLVESGGGLVQAGGSLRLSCAASGSIFYQNAMGWYRHAPGKERELVAAITSDGSTYYADSVKGRFTISRDNAKKTVYLQMNSLKPEDTAVYYCAAEDYGHRYDYWGQGTQVTVSS” the value was “low polyreactivity”. For the sequence “QVQLVESGGGLVQAGGSLRLSCAASGSIFYQNAMGWYRQAPGKERELVAAITSDGSTYYADSVKGRFTISRDNAKNTVYLQMNSLKPEDNAVYYCAAEYYVHRYDYWGQGTQVTVSS”, the “polyreactivity (PSR sort gate)” value is “low polyreactivity”. In the case of “QVQLVESGGGLVQAGGSLRLSCAASGSIFYRNALGWYRQAPGKERELVAAISSDGSTNYADSVKGRFTISRDNAKNTVYLQMNSLKPEDTAVYYCAAPWTQILDYWGQGTQVTVSS”, the “polyreactivity (PSR sort gate)” value is reported as “low polyreactivity”.

Consider “QVQLVESGGGLVQAGGSLRLSCAASGSIFYRNAMGWSRQAPGKERELVAAISASGGSTYYADSVKGRFTISRDNAKNTVYLQMNSLKPEDTAVYYCAVEYRKSRSYAPMGYWGQGTQVTVSS”, for which the “polyreactivity (PSR sort gate)” value is on record as “high polyreactivity”. The result for “QVQLVESGGGLVQAGGSLRLSCAASGSIFYRNAMGWYRQAPGKERELVAAISSDGSTNYADSVKGRFTISRDNAKNTVYLQMNSLKPEDTAVYDCAGLQKRRSYWRPFYWGQGTQVTVSS” reads “low polyreactivity”; that for “QVQLVESGGGLVQAGGSLRLSCAASGSIFYRNAMGWYRQAPGKERELVAAISSDGSTNYADSVKGRFTISRDNAKNTVYLQMNSLKPEDTAVYYCAAPWTHILDYWGQGTQVTVSS”, “low polyreactivity”; that for “QVQLVESGGGLVQAGGSLRLSCAASGSIFYRNAMGWYRQAPGKERELVAAISSDGSTNYADSVTGRFTISRDNAKNTVYLQMNSLKPEDTAVYYCAAPWTQILDYWGQGTQVTVSS”, “low polyreactivity”.

“QVQLVESGGGLVQAGGSLRLSCAASGSIFYRNAMGWYRQAPGKERELVAAISSRGTRTYYADSVKGRFTISRDNAKNTVYLQMNSLKPEDTAVYYCAAADYRFYNGPYSRRWLYGYWGQGTQVTVSS”: the “polyreactivity (PSR sort gate)” value is “high polyreactivity”.

“QVQLVESGGGLVQAGGSLRLSCAASGSIFYRNAMGWYRQAPGKERELVAAISSSVSSTYYADSVKGRFTISRDNAKNTVYLQMNSLKPEDTAVYYCAARRVQRGGDYVYRYLYDYWGQGTQVTVSS”: the “polyreactivity (PSR sort gate)” value is reported as “low polyreactivity”. With “QVQLVESGGGLVQAGGSLRLSCAASGSIFYRNAMGWYRQAPGKERELVAAITRSDGRTYYADSVKGRFTISRDNAKNTVYLLMNSLKPEDTAVYYCAADYSFGYRDFYYWGQGTQVTVSS”, the “polyreactivity (PSR sort gate)” value is reported as “low polyreactivity”.

With “QVQLVESGGGLVQAGGSLRLSCAASGSIFYRNAMGWYRQTPGKERELVAAISSDGSTNYADSVKGRFTFSLDNAKNTVYLQMNRLNPEYTAVYYCAAPWTQFLDYWGQGTQVTVSS”, the “polyreactivity (PSR sort gate)” value was “low polyreactivity”. With “QVQLVESGGGLVQAGGSLRLSCAASGSIFYRNTMGWYRQAPGKERELVASINTGTGTYYADSVKGRFTISRDNAKNTVYLQMNSLKPEDTAVYYCNAKGWVWPFPSYYPYDSWGQGTQVTVSS”, the “polyreactivity (PSR sort gate)” value is reported as “high polyreactivity”.

For “QVQLVESGGGLVQAGGSLRLSCAASGSIFYRNVMGWYRQAPGKERELVAAISQRGGSTYYADSVKGRFTISRDNAKNTVYLQMNSLKPEDTAVYYCNAASRGAGTSIWSWYDHWGQGTQVTVSS”, the “polyreactivity (PSR sort gate)” value is “low polyreactivity”. On to “QVQLVESGGGLVQAGGSLRLSCAASGSIFYRNVMGWYRQAPGKERELVAAISRSGGSTYYADSVKGRFTISRDNAKNTVYLQMNSLQPEDTAVYYCAGRYSPFYYWGQGTQVTVSS”, for which the “polyreactivity (PSR sort gate)” value is on record as “high polyreactivity”. Consider “QVQLVESGGGLVQAGGSLRLSCAASGSIFYRYALGWYRQAPGKEREFVAGITTRGGSTYYADSVKGRFTISRDNAKNTVYFQMNCLKPEDTAVYDCAASSRVWPNFGYWGQGTQVTVSS”, for which the “polyreactivity (PSR sort gate)” value is “high polyreactivity”. The result for “QVQLVESGGGLVQAGGSLRLSCAASGSIFYRYAMAWYRQAPGKERELVAAISSTGSPYYADSVKGRFTISRDNAKNTVYLQRNSLKPEDTAVYYCAARQGYRSYRRYDDWGQGTQVTVSS” reads “high polyreactivity”.
